Assay results published in US20240002860, “SARS-CoV-2 SPIKE GLYCOPROTEIN-BINDING NUCLEIC ACID MOLECULE, SARS-CoV-2 DETECTION SENSOR, SARS-CoV-2 DETECTION REAGENT, SARS-CoV-2 DETECTION METHOD, AND SARS-CoV-2 VIRUS DEACTIVATOR” (NEC Solution Innovators, Ltd., published 2024).

Assays:
[1] = target: T1, SARS-CoV-2 spike glycoprotein RBD domain (SARS-CoV-2, UniProt P0DTC2 SEQ:1-223); assay: SPR; SB1T, no dextran, 25 C
[2] = target: T1, SARS-CoV-2 spike glycoprotein RBD domain; assay: SPR; SB1T + 0.1 mM dextran, 25 C
[3] = target: T1, SARS-CoV-2 spike glycoprotein RBD domain; assay: SPR
[4] = target: BSA (bovine serum albumin) (UniProt P02769 P02769:25-607); assay: SPR; signal approximately 0; conditions: tags: Sigma A7906
BSA (bovine serum albumin), sequence (P02769 25-607, one chain of several): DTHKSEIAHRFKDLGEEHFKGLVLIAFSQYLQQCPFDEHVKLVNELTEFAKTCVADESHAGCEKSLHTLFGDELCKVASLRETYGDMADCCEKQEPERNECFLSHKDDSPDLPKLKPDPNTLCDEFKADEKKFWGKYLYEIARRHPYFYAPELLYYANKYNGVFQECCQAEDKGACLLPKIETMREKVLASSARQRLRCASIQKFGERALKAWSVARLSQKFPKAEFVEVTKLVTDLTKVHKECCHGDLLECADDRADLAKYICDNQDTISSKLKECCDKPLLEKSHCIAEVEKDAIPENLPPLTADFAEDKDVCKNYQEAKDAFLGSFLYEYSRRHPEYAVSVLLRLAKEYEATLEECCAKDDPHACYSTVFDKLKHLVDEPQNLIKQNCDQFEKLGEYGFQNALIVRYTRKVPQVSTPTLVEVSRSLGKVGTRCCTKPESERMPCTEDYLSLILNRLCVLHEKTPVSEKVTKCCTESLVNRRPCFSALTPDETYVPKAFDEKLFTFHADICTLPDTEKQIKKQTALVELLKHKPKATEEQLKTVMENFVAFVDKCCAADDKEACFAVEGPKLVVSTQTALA

[5] = target: SARS-CoV-2 spike glycoprotein S1 domain (SARS-CoV-2, UniProt P0DTC2 SEQ:2-673); assay: SPR; 400 nM protein, SB1T, 25 C; conditions: tags: Elabscience PKSR030481
[6] = target: SARS-CoV-2 spike glycoprotein S1+S2 domain (ECD) (SARS-CoV-2, UniProt P0DTC2 SEQ:2-1201); assay: SPR; 400 nM protein, SB1T, 25 C; conditions: tags: His; Sino Biological 40589-V08B1
[7] = target: T1, SARS-CoV-2 spike glycoprotein RBD domain; assay: ELONA

Binder | Kd [1] | Kd [2] | Kd [3] | binding result [4] | also measured
Binding nucleic acid molecule 12 (ssDNA, NG7 (modified thymine, formula 1) at all T 3' of the first 14 nt) DNA: TGACATGAGCCAGGTGCATCTTGAACGTCATAGATACCGTTGATGTGCTGAAAAAAAAAAAAAAAAAAAA | 2.4 nM | 7.4 nM |  |  | 
Binding nucleic acid molecule 11 (ssDNA, NG7 (modified thymine, formula 1) at all T 3' of the first 15 nt) DNA: TGTGCACTCTCCCGGTATCCCTAATCTCACCCGATACCAAAAAAAAAAAAAAAAAAAA |  | 16.6 nM | < 0.1 nM |  | 
Binding nucleic acid molecule 4 (ssDNA, NG7 (modified thymine, formula 1) at all T 3' of the first 23 nt) DNA: GGTATGTCTCCGCCACTGAAATCTTGTCCCCTAATAGGTTCCGACTGACAAGTGCAAAGCCGAGGTGTCTTGTATTCAAAAAAAAAAAAAAAAAAAA |  |  |  | no binding | binding result [5]: binds; binding result [6]: binds
Binding nucleic acid molecule 1 (ssDNA, NG7 (modified thymine, formula 1) at underlined T, i.e. T residues 3' of the first 23 nt (underlining of some T differs between printings); 3' poly(dA)20 tail unmodified) DNA: GGTATGTCTCCGCCACTGAAATCCGTGCCTAATCTCACCCCACGGAATTCATGGCAAAGCCGAGGTGTCTTGTATTCAAAAAAAAAAAAAAAAAAAA |  | 3.2 nM | 1.2 nM | no binding | 
Control nucleic acid molecule (Song et al. 2020 aptamer) (ssDNA) DNA: CAGCACCGACCTTGTGCTTTGGGAGTGCTGGTCCAAGGGCGTTAATGGACAAAAAAAAAAAAAAAAAAAAA | 65000 nM |  |  |  | 
Binding nucleic acid molecule 5 (ssDNA, NG7 (modified thymine, formula 1) at underlined T, i.e. T residues 3' of the first 23 nt (underlining of some T differs between printings)) DNA: GGTTTAGCCCTCGACTCCAAATGTGCACTCTCCCGGTATCCCTAATCTCACCCGATACCGTTGATGTGCTGCCAATACAAAAAAAAAAAAAAAAAAAA |  | 2.8 nM | < 0.1 nM | no binding | 
Binding nucleic acid molecule 7 (ssDNA, NG7 (modified thymine, formula 1) at all T 3' of the first 23 nt) DNA: GGTTTAGCCCTCGACTCCAAATGTGCTGATACTCGGTATCCCTAATCTCACCCGATACCGTTGATGTGCTGCCAATACAAAAAAAAAAAAAAAAAAAA |  | 5.5 nM | < 0.1 nM | no binding | 
Binding nucleic acid molecule 6 (ssDNA, NG7 (modified thymine, formula 1) at all T 3' of the first 23 nt) DNA: GGTTTAGCCCTCGACTCCAAATGACATGAGCCAGGTGCATCTTGAACGTCATAGATACCGTTGATGTGCTGCCAATACAAAAAAAAAAAAAAAAAAAA | 3.1 nM | 6.7 nM |  | no binding | 
CCACTGAAATCCGTGCCTAATCTCACCCCACGGAATTCATGG (ssDNA, NG7 (modified thymine, formula 1) at all T 3' of the first 11 nt) [Binding nucleic acid molecule 8, 5'-biotin (ELAA)] |  |  |  |  | binding result [7]: binds
Binding nucleic acid molecule 13 (ssDNA, NG7 (modified thymine, formula 1) at all T 3' of the first 12 nt) DNA: GCTGATACTCGGTATCCCTAATCTCACCCGATACCGAAAAAAAAAAAAAAAAAAAA |  | 12 nM | < 0.1 nM |  | 
Binding nucleic acid molecule 1, 5'-biotin (ELAA) (ssDNA, NG7 (modified thymine, formula 1) at underlined T, i.e. T residues 3' of the first 23 nt) DNA: GGTATGTCTCCGCCACTGAAATCCGTGCCTAATCTCACCCCACGGAATTCATGGCAAAGCCGAGGTGTCTTGTATTC |  |  |  |  | binding result [7]: binds
Binding nucleic acid molecule 2 (ssDNA, NG7 (modified thymine, formula 1) at all T 3' of the first 23 nt) DNA: GGTATGTCTCCGCCACTGAAATCTAATCTCACATTGTAAGCAAAGGAGAATAAGCAAAGCCGAGGTGTCTTGTATTCAAAAAAAAAAAAAAAAAAAA | 1.7 nM | 3.5 nM |  | no binding | 
Binding nucleic acid molecule 3 (ssDNA, NG7 (modified thymine, formula 1) at all T 3' of the first 23 nt) DNA: GGTATGTCTCCGCCACTGAAATCCCTGACCGCTGACCAAATCTCAGTGCAGATGCAAAGCCGAGGTGTCTTGTATTCAAAAAAAAAAAAAAAAAAAA |  |  |  | no binding | binding result [5]: binds; binding result [6]: binds
Binding nucleic acid molecule 8 (ssDNA, NG7 (modified thymine, formula 1) at all T 3' of the first 11 nt) DNA: CCACTGAAATCCGTGCCTAATCTCACCCCACGGAATTCATGGAAAAAAAAAAAAAAAAAAAA | 2 nM | 5.3 nM |  |  | 
Binding nucleic acid molecule 9 (ssDNA, NG7 (modified thymine, formula 1) at all T 3' of the first 15 nt) DNA: TCCGCCACTGAAATCTAATCTCACATTGTAAGCAAAGGAGAATAAAAAAAAAAAAAAAAAAAAAA | 2.1 nM | 20.8 nM |  |  | 
